From patent US20230064703A1 come the findings set out here.

For assay [1], the target named is human GITR expressed on Cho-K1 cells (human) (UniProt Q9Y5U5). Kind of assay: FACS binding assay with GITR/Cho-K1, chimeric antibody. A general note: Flow cytometry measures light scatter and fluorescence of single cells or particles in a stream.
For assay [2] the target is unchanged. Kind of assay: FACS, chimeric antibody on GITR/Cho-K1 cells, geometric mean, 4-parameter fit.
The target is the same in assay [3]. In words: FACS binding assay with GITR/Cho-K1, humanized antibody.

Sequence of human GITR expressed on Cho-K1 cells (human) (Q9Y5U5 26-241): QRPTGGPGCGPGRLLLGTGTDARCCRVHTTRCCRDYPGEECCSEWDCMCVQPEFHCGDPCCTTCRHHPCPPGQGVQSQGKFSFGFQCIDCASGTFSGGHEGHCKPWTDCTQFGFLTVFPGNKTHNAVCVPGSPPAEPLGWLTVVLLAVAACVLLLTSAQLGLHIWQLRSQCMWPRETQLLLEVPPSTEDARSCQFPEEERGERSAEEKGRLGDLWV

B1: chimeric antibody 225H7D12 (human IgG1) (antibody, V domains shown)
VH: QVQLQQSGAEVMKPGASVKLSCKTTGYRFTGYWIEWVKQRPGHGLEWIGEILPGSGVSNNNEKFRDKATFTADTSSNTAYIQLSSLTTDDSAIYYCARKASYYTMDYWGQGTSVTVSS
VL: QIVLTQSPAIMSASLGERVTMTCTASSSVSSFYFHWYQQKPGSSPKLWIYSISNLASGVPTRFSGSGSGTSYSLTISSMEAEDAATYYCHQYHRSPRTFGGGTKLEIKR
One may read the EC50 as the concentration giving half of the maximal effect. A high value points to weaker potency. Take B1: the EC50 turned out to be 0.112 µg/mL in assay [1] and 0.0566 µg/mL in assay [2].

B2: chimeric antibody 45F1F3 (human IgG1) (antibody, V domains shown)
VH: DVQLQESGPGLVKPSQSLSLTCTVTGYSITIDYAWNWIRQFPGNKLEWMGYISNSGYTSYNPSLKSRISFTRDTSKNQFFLQLNSVTPEDSATYYCTRSGHYDLFDYWGQGTTLTVSS
VL: DVVMTQAPLTLSVTIGQPASISCKSSQSLFDRDGKTYLSWLLERPGQSPKRLIYLVSNLDSGVPDRFTGSGSGTDFTLKISRVEAEDLGVYYCWQGTHFPYTFGGGTKVEMKR
Take B2: the EC50 stood at 0.111 µg/mL in assay [1] and 0.0443 µg/mL in assay [2].

B3: humanized antibody 225H7D12 VH1.4 + VL1.2 (antibody, V domains shown)
VH: QVQLVQSGAEVKKPGASVKVSCKTTGYRFTGYWIEWVKQAPGQGLEWIGEILPGSGVSNNNEKFRDRATFTADTSINTAYMELSRLRSDDTAVYYCARKASYYTMDYWGQGTLVTVSS
VL: DIQMTQSPSSLSASVGDRVTITCTASSSVSSFYFHWYQQKPGKAPKLWIYSISNLASGVPSRFSGSGSGTSYTLTISSLQPEDFATYYCHQYHRSPRTFGGGTKLEIK
Regarding B3, in assay [3], the EC50 turned out to be 0.181 µg/mL.
